Experimental data: US20230357348A1 (AstraZeneca / MedImmune, published 2023)
Values belong to the binder of their own block, whether it stands above or below them. Starred links: 1 amine or outer side, 2 acyl side, 3 side chain; linkers in the order of their positions; H or OH if unused. Non-standard residues stand in square brackets, D forms with d. Groups on a side chain read outwards from the residue. Primed or numbered codes have the meaning given here. No end group written: not given here. *: point of attachment. C20 diacid = O=C(O)CCCCCCCCCCCCCCCCCCC(=O)*; C18 diacid = O=C(O)CCCCCCCCCCCCCCCCC(=O)*; γGlu = O=C(O)[C@H](CCC(=O)[*:2])N[*:1]; αMeF = C[C@](N)(Cc1ccccc1)C(=O)O; (PEG)2 = polyethylene glycol 2; PEG4 = NCCOCCOCCOCCOCCC(=O)O; PEG4′ = polyethylene glycol; AEEA = NCCOCCOCC(=O)O; Aib = CC(C)(N)C(=O)O

Columns and labels:
human GLP-1 receptor = human GLP-1 receptor (human, UniProt P43220 24-463); assay: cell-based or functional assay
human glucagon receptor = human glucagon receptor (human, UniProt P47871 26-477); assay: cell-based or functional assay
Chain of human glucagon receptor (P47871 26-477): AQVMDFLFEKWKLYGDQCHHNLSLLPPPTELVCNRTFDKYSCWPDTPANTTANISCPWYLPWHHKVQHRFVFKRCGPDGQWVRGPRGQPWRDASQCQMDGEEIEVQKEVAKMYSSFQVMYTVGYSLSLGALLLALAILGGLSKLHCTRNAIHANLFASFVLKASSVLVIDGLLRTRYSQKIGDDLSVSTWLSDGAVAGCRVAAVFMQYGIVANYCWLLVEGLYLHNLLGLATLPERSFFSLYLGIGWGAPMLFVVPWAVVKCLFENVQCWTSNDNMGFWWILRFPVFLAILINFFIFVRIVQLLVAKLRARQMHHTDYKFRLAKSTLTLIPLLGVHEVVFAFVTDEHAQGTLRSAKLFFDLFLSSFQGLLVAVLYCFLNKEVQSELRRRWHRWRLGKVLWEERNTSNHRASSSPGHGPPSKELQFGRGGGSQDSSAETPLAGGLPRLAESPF

B1: Peptide 269 (peptide)
peptide: H[Aib]HGS[αMeF]TSDVSK[αMeF]LDSRAAK([PEG4′-γGlu-γGlu-C20 diacid])D[αMeF]VQ[Aib]IANT-NH2
hGLP-1R EC50 (pM), cAMP (human GLP-1 receptor): 52 pM
hGluc-R EC50 (pM), cAMP (human glucagon receptor): 271 pM

B2: Peptide 268 (peptide)
peptide: H[Aib]HGS[αMeF]TSDVSK[αMeF]LDSRAAK([AEEA-γGlu-C20 diacid])D[αMeF]VQ[Aib]IANT-NH2
modifications: N-terminus assumed
SMILES: CC[C@H](C)[C@H](NC(=O)C(C)(C)NC(=O)[C@H](CCC(N)=O)NC(=O)[C@@H](NC(=O)[C@](C)(Cc1ccccc1)NC(=O)[C@H](CC(=O)O)NC(=O)[C@H](CCCCNC(=O)COCCOCCNC(=O)CC[C@H](NC(=O)CCCCCCCCCCCCCCCCCCC(=O)O)C(=O)O)NC(=O)[C@H](C)NC(=O)[C@H](C)NC(=O)[C@H](CCCNC(=N)N)NC(=O)[C@H](CO)NC(=O)[C@H](CC(=O)O)NC(=O)[C@H](CC(C)C)NC(=O)[C@](C)(Cc1ccccc1)NC(=O)[C@H](CCCCN)NC(=O)[C@H](CO)NC(=O)[C@@H](NC(=O)[C@H](CC(=O)O)NC(=O)[C@H](CO)NC(=O)[C@@H](NC(=O)[C@](C)(Cc1ccccc1)NC(=O)[C@H](CO)NC(=O)CNC(=O)[C@H](Cc1c[nH]cn1)NC(=O)C(C)(C)NC(=O)[C@@H](N)Cc1c[nH]cn1)[C@@H](C)O)C(C)C)C(C)C)C(=O)N[C@@H](C)C(=O)N[C@@H](CC(N)=O)C(=O)N[C@H](C(N)=O)[C@@H](C)O
hGLP-1R EC50 (pM), cAMP (human GLP-1 receptor): 39.5 pM
hGluc-R EC50 (pM), cAMP (human glucagon receptor): 29.3 pM

B3: Peptide 272 (peptide)
peptide: H[Aib]HGS[αMeF]TSDVSK[αMeF]LDSRAAK([AEEA-AEEA-C18 diacid])D[αMeF]VQ[Aib]IANT-NH2
hGLP-1R EC50 (pM), cAMP (human GLP-1 receptor): 15.7 pM
hGluc-R EC50 (pM), cAMP (human glucagon receptor): 14.3 pM

B4: Peptide 274 (peptide)
peptide: H[Aib]HGS[αMeF]TSDVSK[αMeF]LDSRAAK([AEEA-γGlu-γGlu-C18 diacid])D[αMeF]VQ[Aib]IANT-NH2
hGLP-1R EC50 (pM), cAMP (human GLP-1 receptor): 27.1 pM
hGluc-R EC50 (pM), cAMP (human glucagon receptor): 31.3 pM

B5: Peptide 264 (peptide)
peptide: H[Aib]HGS[αMeF]TSDVSK[αMeF]LDSRAAK([(PEG)2-(PEG)2-γGlu-γGlu-C20 diacid])D[αMeF]VQ[Aib]IANT-NH2
hGLP-1R EC50 (pM), cAMP (human GLP-1 receptor): 69.5 pM
hGluc-R EC50 (pM), cAMP (human glucagon receptor): 297 pM

B7: Peptide 273 (peptide)
peptide: H[Aib]HGS[αMeF]TSDVSK[αMeF]LDSRAAK([AEEA-C18 diacid])D[αMeF]VQ[Aib]IANT-NH2
hGLP-1R EC50 (pM), cAMP (human GLP-1 receptor): 22.1 pM
hGluc-R EC50 (pM), cAMP (human glucagon receptor): 23.3 pM

B8: Peptide 271 (peptide)
peptide: H[Aib]HGS[αMeF]TSDVSK[αMeF]LDSRAAK([γGlu-C18 diacid])D[αMeF]VQ[Aib]IANT-NH2
modifications: N-terminus assumed
SMILES: CC[C@H](C)[C@H](NC(=O)C(C)(C)NC(=O)[C@H](CCC(N)=O)NC(=O)[C@@H](NC(=O)[C@](C)(Cc1ccccc1)NC(=O)[C@H](CC(=O)O)NC(=O)[C@H](CCCCNC(=O)CC[C@H](NC(=O)CCCCCCCCCCCCCCCCC(=O)O)C(=O)O)NC(=O)[C@H](C)NC(=O)[C@H](C)NC(=O)[C@H](CCCNC(=N)N)NC(=O)[C@H](CO)NC(=O)[C@H](CC(=O)O)NC(=O)[C@H](CC(C)C)NC(=O)[C@](C)(Cc1ccccc1)NC(=O)[C@H](CCCCN)NC(=O)[C@H](CO)NC(=O)[C@@H](NC(=O)[C@H](CC(=O)O)NC(=O)[C@H](CO)NC(=O)[C@@H](NC(=O)[C@](C)(Cc1ccccc1)NC(=O)[C@H](CO)NC(=O)CNC(=O)[C@H](Cc1c[nH]cn1)NC(=O)C(C)(C)NC(=O)[C@@H](N)Cc1c[nH]cn1)[C@@H](C)O)C(C)C)C(C)C)C(=O)N[C@@H](C)C(=O)N[C@@H](CC(N)=O)C(=O)N[C@H](C(N)=O)[C@@H](C)O
hGLP-1R EC50 (pM), cAMP (human GLP-1 receptor): 54.6 pM
hGluc-R EC50 (pM), cAMP (human glucagon receptor): 28 pM

B12: Peptide 267 (peptide)
peptide: H[Aib]HGS[αMeF]TSDVSK[αMeF]LDSRAAK([PEG4-γGlu-C20 diacid])D[αMeF]VQ[Aib]IANT-NH2
hGLP-1R EC50 (pM), cAMP (human GLP-1 receptor): 65.6 pM
hGluc-R EC50 (pM), cAMP (human glucagon receptor): 128 pM

B15: Peptide 266 (peptide)
peptide: H[Aib]HGS[αMeF]TSDVSK[αMeF]LDSRAAK([AEEA-γGlu-AEEA-γGlu-C20 diacid])D[αMeF]VQ[Aib]IANT-NH2
hGLP-1R EC50 (pM), cAMP (human GLP-1 receptor): 66.5 pM
hGluc-R EC50 (pM), cAMP (human glucagon receptor): 293 pM

B17: Peptide 265 (peptide)
peptide: H[Aib]HGS[αMeF]TSDVSK[αMeF]LDSRAAK([AEEA-γGlu-AEEA-C20 diacid])D[αMeF]VQ[Aib]IANT-NH2
hGLP-1R EC50 (pM), cAMP (human GLP-1 receptor): 71.2 pM
hGluc-R EC50 (pM), cAMP (human glucagon receptor): 131 pM

B18: Peptide 277 (peptide)
peptide: H[Aib]HGS[αMeF]TSDVSK[αMeF]LDSRAAK([AEEA-AEEA-C20 diacid])D[αMeF]VQ[Aib]IANT-NH2
hGLP-1R EC50 (pM), cAMP (human GLP-1 receptor): 49.5 pM
hGluc-R EC50 (pM), cAMP (human glucagon receptor): 57.3 pM

B21: Peptide 270 (peptide)
peptide: H[Aib]HGS[αMeF]TSDVSK[αMeF]LDSRAAK([γGlu-γGlu-C18 diacid])D[αMeF]VQ[Aib]IANT-NH2
hGLP-1R EC50 (pM), cAMP (human GLP-1 receptor): 24.4 pM
hGluc-R EC50 (pM), cAMP (human glucagon receptor): 31.3 pM

B22: Peptide 276 (peptide)
peptide: H[Aib]HGS[αMeF]TSDVSK[αMeF]LDSRAAK([γGlu-C20 diacid])D[αMeF]VQ[Aib]IANT-NH2
hGLP-1R EC50 (pM), cAMP (human GLP-1 receptor): 143 pM
hGluc-R EC50 (pM), cAMP (human glucagon receptor): 91.4 pM

B23: Peptide 263 (peptide)
peptide: H[Aib]HGS[αMeF]TSDVSK[αMeF]LDSRAAK([PEG4-γGlu-γGlu-C18 diacid])D[αMeF]VQ[Aib]IANT-NH2
hGLP-1R EC50 (pM), cAMP (human GLP-1 receptor): 25.4 pM
hGluc-R EC50 (pM), cAMP (human glucagon receptor): 64.6 pM

B24: Peptide 278 (peptide)
peptide: H[Aib]HGS[αMeF]TSDVSK[αMeF]LDSRAAK([AEEA-C20 diacid])D[αMeF]VQ[Aib]IANT-NH2
hGLP-1R EC50 (pM), cAMP (human GLP-1 receptor): 78.9 pM
hGluc-R EC50 (pM), cAMP (human glucagon receptor): 83.5 pM

B25: Peptide 275 (peptide)
peptide: H[Aib]HGS[αMeF]TSDVSK[αMeF]LDSRAAK([γGlu-γGlu-C20 diacid])D[αMeF]VQ[Aib]IANT-NH2
hGLP-1R EC50 (pM), cAMP (human GLP-1 receptor): 111 pM
hGluc-R EC50 (pM), cAMP (human glucagon receptor): 175 pM

Further lines, results first:

hGLP-1R EC50 (pM), cAMP (human GLP-1 receptor): 31.6 pM
hGluc-R EC50 (pM), cAMP (human glucagon receptor): 53 pM
B6: Peptide 286 (peptide)
peptide: H[Aib]HGS[αMeF]TSDVSKYLDSRAAK([AEEA-AEEA-γGlu-C18 diacid])D[αMeF]VQ[Aib]IANT-NH2
modifications: also: F6: αMePhe per table, X13: αMePhe, Y per table

hGLP-1R EC50 (pM), cAMP (human GLP-1 receptor): 27.5 pM
hGluc-R EC50 (pM), cAMP (human glucagon receptor): 26.5 pM
B9: Peptide 287 (peptide)
peptide: H[Aib]HGS[αMeF]TSDVSK[αMeF]LDSRAAK([AEEA-AEEA-γGlu-C18 diacid])DFVQ[Aib]IANT-NH2
modifications: not fully specified; also: Y13: αMePhe per table

hGLP-1R EC50 (pM), cAMP (human GLP-1 receptor): 42.7 pM
hGluc-R EC50 (pM), cAMP (human glucagon receptor): 26.9 pM
B10: Peptide 288 (peptide)
peptide: H[Aib]HGS[αMeF]TSDVSK[αMeF]LDSRAAK([AEEA-AEEA-γGlu-C18 diacid])D[αMeF]VQWIANT-NH2
modifications: not fully specified; also: F22: αMePhe per table

hGLP-1R EC50 (pM), cAMP (human GLP-1 receptor): 28.7 pM
hGluc-R EC50 (pM), cAMP (human glucagon receptor): 20.4 pM
B11: Peptide 292 (peptide)
peptide: H[Aib]HGS[αMeF]TSDVSKYLDSRAAKDFVQWIANT-NH2
modifications: not fully specified (residue 20); also: F6: αMePhe per table

hGLP-1R EC50 (pM), cAMP (human GLP-1 receptor): 1230 pM
hGluc-R EC50 (pM), cAMP (human glucagon receptor): 1140 pM
B13: Peptide 282 (peptide)
peptide: H[Aib]HGS[αMeF]TSDVSK[αMeF]LDSRAAK([AEEA-AEEA-γGlu-γGlu-C20 diacid])D[αMeF]VQ[Aib]IANT-NH2
modifications: also: S2: Aib per table, X6: αMePhe, F per table

hGLP-1R EC50 (pM), cAMP (human GLP-1 receptor): 301 pM
hGluc-R EC50 (pM), cAMP (human glucagon receptor): 87 pM
B14: Peptide 285 (peptide)
peptide: HSHGS[αMeF]TSDVSK[αMeF]LDSRAAK([AEEA-AEEA-γGlu-C18 diacid])D[αMeF]VQ[Aib]IANT-NH2
modifications: not fully specified; also: S2: Aib per table

hGLP-1R EC50 (pM), cAMP (human GLP-1 receptor): 78.3 pM
hGluc-R EC50 (pM), cAMP (human glucagon receptor): 155 pM
B16: Peptide 280 (peptide)
peptide: H[Aib]HGS[αMeF]TSDVSK[αMeF]LDSRAAK([AEEA-AEEA-γGlu-C20 diacid])D[αMeF]VQ[Aib]IANT-NH2

hGLP-1R EC50 (pM), cAMP (human GLP-1 receptor): 86.5 pM
hGluc-R EC50 (pM), cAMP (human glucagon receptor): 150 pM
B19: Peptide 279 (peptide)
peptide: H[Aib]HGS[αMeF]TSDVSK[αMeF]LDSRAAK([AEEA-γGlu-γGlu-C20 diacid])D[αMeF]VQ[Aib]IANT-NH2

hGLP-1R EC50 (pM), cAMP (human GLP-1 receptor): 129 pM
hGluc-R EC50 (pM), cAMP (human glucagon receptor): 552 pM
B20: Peptide 283 (peptide)
peptide: H[Aib]HGS[αMeF]TSDVSKYLDSRAAK([AEEA-AEEA-γGlu-γGlu-C20 diacid])D[αMeF]VQ[Aib]IANT-NH2
modifications: also: F6: αMePhe per table, X13: αMePhe, Y per table
